Assay: yeast display, Sf9 membrane polyspecificity reagent, FACS + sequencing; frameworks hold sequencing errors
Method in brief: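 After 36–48 hours of galactose induction, yeast (Saccharomyces cerevisiae BJ5465) displaying a synthetic nanobody library were stained at 4 °C for 1 hour with 10% biotinylated, detergent-solubilized Sf9 membrane reagent. Streptavidin microbeads enriched the stained cells before FACS sorting into low and high (top ~1%) gates on anti-HA and streptavidin fluorescence. Each clone's polyreactivity label reflects its gate of origin.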

Sequence	polyreactivity (PSR sort gate)
QVQLVESGGGLVQAGGSLSLSCAASGFIFTPYTMGWYREAPGKERELVAAITDGSSTNYADSVKGRFTISRDNAKNTVYLQMNSLKPEDTAVYYCAKDWPSAVYGSWAGRYDYWGQGSQVTVSS	low polyreactivity
QVQLVESGGGLVQAGGSLSLSCAASGFTFPLYAMGWYRPAPGKERELVASISKSGGRTYYADSVKGRFTISRDNAKNTVYLQMNSLKPEDTAVYYCATLPRYYGYWGQGTQVTVSS	high polyreactivity
QVQLVESGGGLVQAGGSLSLSCAASGFTFRWYAMGWYRQAPGKERELVAAISSDDDTSYADSVKGRFTISRDNAKNTVYLQMNSLKPEDTAVYDCAADGYYTLDAYPYGIFWYDYWGQGTQVTVSS	low polyreactivity
QVQLVESGGGLVQAGGSLSLSCAASGFTFRYNAMGWYRQAPGKERELVARISSTGGGTSYADSVKGRFTISRDNAKNTVYLQMNSLKPEDTAVYYCAAPVRRYPYPGRFYYWGQGTQVTVSS	low polyreactivity
QVQLVESGGGLVQAGGSLSLSCAASGFTFSVYVLGWYRQAPGKERELVAAISSGGDTTYADSVKGRFTISRDNAKNTVYLQMNSLNPVDTAVYYCAADPGYYSWGSSQDDYWGQGTQVTVSS	low polyreactivity
QVQLVESGGGLVQAGGSLSLSCAASGFTFYENAMGWYRQAPGKERELVATISYSGGTTYYADSVKGRFTISRDNAKNTVYLQMNSLKPEDTAVYYCNADYFYYGFPDDYWGQGTQVTVSS	low polyreactivity
QVQLVESGGGLVQAGGSLSLSCAASGFTFYYYAMGLYRQAPGKERELVAAISWSGGSTYYADSVKGRFTISRDIAKNSVYLQMNCLKPEYTAVYYCNAVGYTAYDYWGQGTQVTVSS	high polyreactivity
QVQLVESGGGLVQAGGSLSLSCAASGGTFSPYAMGWYRQAPGKERELVAITSSDSTNYADSVKGRFTISRDNAKNTVYLQMNSLKPEDTAVYYCNAGYPIPEDYLAYGNFDYWGQGTQVTVSS	low polyreactivity
QVQLVESGGGLVQAGGSLSLSCAASGGTFSYYAMGWYRQAPGKGELVAAISSGGSTNYADSVKGRFTISRDNAINTAYLQMNSLKPEDTAVYYCADRYRFWGPYNYWGQGTQVTVSS	high polyreactivity
QVQLVESGGGLVQAGGSLSLSCAASGGTFYQYAMGWYRQAPGKERELVAAISTSGARTYYADSVKGRFTISRDNAKNTVYLQMNSLKTEDTAVYYCAADHIRGGLDYWGQGTQVTVSS	high polyreactivity
QVQLVESGGGLVQAGGSLSLSCAASGIIFVDYAMGWYRQAPGKERELVAVIRSAGSTYYADSVKGRFTISRDNAKNTVYLQMNSLKPEDTAVYYCNARARGARRYYYWGQGTQVTVSS	high polyreactivity
QVQLVESGGGLVQAGGSLSLSCAASGLIFITYAMGWYRQAPGKERELVATITLRGGSTYYADSVKGRFTISRDNAKNTVYLQMNSLKPEDTAVYYCAADVGYWGRSRGYPSDDYDYWGQGTQVTVSS	low polyreactivity
QVQLVESGGGLVQAGGSLSLSCAASGLIFYYYAMGWYRQAPGKERELVAAISGSGGSTYYADSVKGRFTISRDNAKNTVYLQMNSLKPEDTAVYYCAAESQYTYGYGYWGQGTQVTVSS	high polyreactivity
QVQLVESGGGLVQAGGSLSLSCAASGLIYYSYAMGWYRQAPGKERELVAAITGGGSTNYADSVKGRFTISPDNAKNTVYLQMNSLKPEDTAVYYCAAAFTLRKYDYWGQGTQVSVSS	low polyreactivity
QVQLVESGGGLVQAGGSLSLSCAASGLTFVDNAMGWYRQAPWKERELVAAISYNGGSTYYADSVKGRFTISRDHAKTTVYLQMNSLKPEDTAVYSCAADIYVGRYGDMDFWGQGTQVTVSS	low polyreactivity
QVQLVESGGGLVQAGGSLSLSCAASGRIFGHNAMGWYRQAPGKERELVATISSGVRTNYADSVKGRFTISRDNAKNTVYLQMNSLKPEDTAVYYCATKTYQFGYSSYYYWGQGTQVTVSS	high polyreactivity
QVQLVESGGGLVQAGGSLSLSCAASGRIFSTYAMGWYRQAPGKERELVAAITSRGTSTYYADSVKGRFTISRDNAKNTVYLQINSLKPEDSAVYYCAARRERWSSSIVGYWGQGTQVTVSS	high polyreactivity
QVQLVESGGGLVQAGGSLSLSCAASGRIFVSYAMGWYRQAPGKERELVAAISYSGGSTYYADSVKGRFTISRDNAKNTVYLQMNSLKPEDTAVYYCAKDGGVYAPAGDDDYWGQGTQVTVSS	low polyreactivity
QVQLVESGGGLVQAGGSLSLSCAASGRIIKFYAMGWYRQAPGKERELVARISRSGGRTYYSDSVKGRFTISRDNAKNTVYLQMNSLKPEDPAVYYCNADGDNRRDRYEYWGQGTQVTVSS	low polyreactivity
QVQLVESGGGLVQAGGSLSLSCAASGRSFFNYAMGWYRQAPGKERELVAAISFSDGSTYYADSVKGRFTISRDNAKNTVYLQMNSLKPEDTAVYYCAAEPDYVYYRSDQALFDYWGQGTQVTVSS	high polyreactivity
QVQLVESGGGLVQAGGSLSLSCAASGRTFDDNAMGWYRQAPGKERELVAAISSTGSTNYADSLKGRFTISRDNAKNTVYLQMNSLKPEDTAVYYCNTDGGHERAYYYWGQCTQVTVSS	low polyreactivity
QVQLVESGGGLVQAGGSLSLSCAASGRTLYLYTMGWYRQAPGKERELVASINWRGSTYYADSVKGRFTISRDNAKNTVYLQMNSLKPEDTAVYYCNVGGPSGGMYYWGQGTQVTVSS	low polyreactivity

Sequence	polyreactivity (PSR sort gate)
QVQLVESGGGLVQAGGSLSLSCAASGSIFDYYDMGWYRQSPGKERQLVAAITGSGGNTYYADSVKGRFTISRDNAKNTVYLQMNSLKPEDTAVYYCAAYGLYGAHTGYGSWGQCTQVTVSS	high polyreactivity
QVQLVESGGGLVQAGGSLSLSCAASGSIFFYAMGGYRPAPGKERELVADITYTGGSKYADSVKGRFTISRDNAKYTVYLQMNSLKPEDTAVYSCAKLDGGLFDYWGHGTQVTVSS	low polyreactivity
QVQLVESGGGLVQAGGSLSLSCAASGSIFGDYVLGWYRQAPGKERELVAAINRGGSTYYADSVKGRFTISRDNAKNTVYLQMNSLKPEDTAVYYCAAGYPSWYYGYPYDSWGLGTQVTVSS	low polyreactivity
QVQLVESGGGLVQAGGSLSLSCAASGSIFPYYAMGWYRQAPGKESELVAAISRGGGTTYYADSVKGRFTISRDNAKNSVYLQMNSLKPEDTAVYSGAARRWGEYDYWGQGTQVTVSS	high polyreactivity
QVQLVESGGGLVQAGGSLSLSCAASGSIFVRYAMGWSRHAPWKERELVAAISVRGGRTYYAYSVKGRFTISRDNAKNTVYLQMNRLKPEATAVYYCAAQLYYYYSYVPPGGYWGQGTQVTVSA	high polyreactivity
QVQLVESGGGLVQAGGSLSLSCAASGSILPYNTMGWDRQAPGKERELVAAITSGVGSTYADSVKGRFTISRDNAKNTVYLQMNSLKPEDTAVYYCNASESAIPIGDLGDYWGQGTQVTVSS	low polyreactivity
QVQLVESGGGLVQAGGSLSLSCAASGSILQLYAMGWYRQAPGTERELVAAITESAGSKSYADSVKGRFTISRDNAKITVYLQMNSLKPEDTAVYYCNAEYSAYSGFDVEWSLDYDYWGQGTQVTVSS	low polyreactivity
QVQLVESGGGLVQAGGSLSLSCAASGSISLVYAMGWYRQAPGKERELVAAISASGGRTYYADSVKGRFTISRDNAKNTVYLQMNSLKPEDTAVYYFSKDVKKIEFDYWGQGTQVTVSS	high polyreactivity
QVQLVESGGGLVQAGGSLSLSCAASGSNFKAYAMGWYRQAPGKERELVAAITKSGGRTYYADSVKGRFTISRDNAKNTVYLQMKSLNPEDTAVYSCAAVFRPDSSAYRYYYWGQGTQVTVST	high polyreactivity
QVQLVESGGGLVQAGGSLSLSCAASGSSFGGYTMGWYRQAPGKERELVAAISRRGGNTYYADSVKGRFTISRDNAKNTVYLQMNSLNPEETAVYYCAVRWPSARIPVKLDYWGQGTQVTVSS	high polyreactivity
QVQLVESGGGLVQAGGSLSLSCAASGSTFAYYAMGWSRQAPGKERELVAGITWTGGSTYYADSVKGRFTISRDNAKNTVYLQMNSLKPEDTAVYYCAVTYPYGYEYDHWGQGSQVTVSS	low polyreactivity
QVQLVESGGGLVQAGGSLSLSCAASGSTFAYYAMGWYRQAPGKERELVAGITWTGGSTYYADSVKGRFTISRDNAKHTDYLQMNSLKPEDTAVYYCAVTYPYGYEYDHWGQGSQVTVSS	low polyreactivity
QVQLVESGGGLVQAGGSLSLSCAASGSTFYENAMGWYRQAPGKERELVAAITWSGGRTYYADSVKGRFTISRDNAKNTVYLQMNSLKPEDTAVYYCNARARSRKFYYWGQGTQVTVSS	high polyreactivity
QVQLVESGGGLVQAGGSLSLSCAASGSTFYRYAKGWYRQAPGKERELVAAISTRGGSTYYADSVKGRFTISRDNAKNTVYLQMNSLKPEDTAVYYCAAKSGSPDDYDYWGHGTQVTVSS	high polyreactivity
QVQLVESGGGLVQAGGSLSLSCAASGSTLRYYDMGWYRQAPGKERELVAAISRGGSTYYADSVKGRFTISRDNAKNTVYLQMNSLKPEDTAVYYCNKEYPSSYEYDYWGQGTQVTVSS	low polyreactivity
QVQLVESGGGLVQAGGSLSLSCAASGSTYFYAMGWYRQAPGKERELVAAISFSDGITYYADSVKGRFTISRDNAKNTVYLQMNSLKPEDTAVYYCAADYISLREEDYWGQGTQVTVSS	high polyreactivity
QVQLVESGGGLVQAGGSLSLSCAATGSIFGGNAMGWKRQAPGKERELVATITDRGSSTYYADSVKGRFTISRDNAKNTVYLRMHSLNPDDTAVYYCANAFPDVPEHDYGGQGTQVTVSS	low polyreactivity
QVQLVESGGGLVQAGGSLSLSCAATGTNFCHNAMGWYRPAPWKERELGAGITSVGSTYFAYSVKGRFTISRDNAKNTVYLQMNSLKPEDTAVYYSAKGYDFRRSYEYWGQGTQVNVSS	low polyreactivity
QVQLVESGGGLVQAGGSLSLSCASSGSTLTYYAMGWYRQEPGKEREFVAAIRWSSGNTYYADSVKGRFTISRDNAKNTVYLQMNSLKPEDTAVYYCAKERRYTGRRSYEYDYWGQGTQVTVSS	low polyreactivity
QVQLVESGGGLVQAGGSLSLSFAASGRTFARYAMGWYRQAPGKEREFVAGINWSGGGTYYADSVKGRFTISRDNAKNTVYLQMNSLKTEDTAVYYCAAVPTNRYGYWGQGTQVTVSS	high polyreactivity
QVQLVESGGGLVQAGGSLTLSCAASGSTFDYNVMGWYRQAPGKERELVAAISNAGTTNYADSVKGRFTISRDNAKNTVYLLMNSLKPEDTAVYYCAADLGYYAAVTKYAEYDYWGQGTQVTVSS	low polyreactivity
